# Laboratory results published in PMC5992322 (Cell, 2017).
# B1: Nup192(2-960) (domain or fragment, S. cerevisiae, UniProt P47054 2-960, looked up)
# chain: KWSAIPFQTLYRSIESGEFDFDLFKEVLPDLQNLNLNTDKLKNNASRSQLEKGEIELSDGSTFKVNQEFIFEAISLSDELNLDEIVACELILSGDTTANNGKVQYFLRRQYILQIVSFIVNCFHEDTELYQELIKNGALVSNILSAFKFIHTQLSEIKQQINKAQILENYNALFQQNIKFRRDFLLREYDILSQILYGLVDKGAIMKNKDFILSLLHHVSELDSNDFFIIYYTPAFFHLFASLRVLPDADVKLLHSQFMKDLKDDSIYTKPVKVALIFIFFAYFIGWCKEDPKRRADTMDFKTDVDEPMTSAVELGAIEQILIFAADTSIVEQDKSMELFYDIRSLLERHIPRLIPKQLLDDEKIFSQTTNSTYNPASATDNMSGRGLWNPSYPGMMSTTGTARLNSMPNNVNEYSYTTIVLSDQTQEFFLSSFDDVLQTIITDCAFLLTKIKDAEEDSLLSGEDLTLDDISLKADLERFFLSIYFFYASRPEYSCTFWSDKESNAYGFIEWCSRCNDNLMRSCFYLMVSSLSFGPENALNVYHYFGENSSISWKNIAQCLSDYTKKISNFNSSLHKRQQFSESTHNDIDSTAVALEEGLNEEAVIFLSSLLTLVGSVTYQVDEDVKSSLSKVFSDVLFEFTKINTPLVGAAFKVISNLVPKLESSRTKFWSFLDSLIFKDSSLNYSSESYRNAFTNVLTKYSDVLGFLQLFHNLISIHSRENNSEYMVFGKLAFPTRLGQGYRKVGIWPYFDYIFNDILAHVDQIVDIRNKRAVQLPILKIIYTGLCSFDYSVILNSIPAAANLDALVDCENFFNYVQECPAIPIFNYIFTEKIYKSIFNVVDVGVDQLSIELEGGKNQAELLQLAVKIINKVLDYQETYVEELFPIVKKHGKTDYFLPKNYSLHGLRSFYDAIFFNIPLVAHLGLYVGVDDQILATNSLRILAKLSERSNGSVASLS
# Legend:
# [1] = target: Nup84-Nup133(521-1157) complex (S. cerevisiae, UniProt P52891 1-726; P36161 521-1157); experiment: pull-down
# Sequence of Nup84-Nup133(521-1157) complex (P52891 whole entry, chain 1 of 2): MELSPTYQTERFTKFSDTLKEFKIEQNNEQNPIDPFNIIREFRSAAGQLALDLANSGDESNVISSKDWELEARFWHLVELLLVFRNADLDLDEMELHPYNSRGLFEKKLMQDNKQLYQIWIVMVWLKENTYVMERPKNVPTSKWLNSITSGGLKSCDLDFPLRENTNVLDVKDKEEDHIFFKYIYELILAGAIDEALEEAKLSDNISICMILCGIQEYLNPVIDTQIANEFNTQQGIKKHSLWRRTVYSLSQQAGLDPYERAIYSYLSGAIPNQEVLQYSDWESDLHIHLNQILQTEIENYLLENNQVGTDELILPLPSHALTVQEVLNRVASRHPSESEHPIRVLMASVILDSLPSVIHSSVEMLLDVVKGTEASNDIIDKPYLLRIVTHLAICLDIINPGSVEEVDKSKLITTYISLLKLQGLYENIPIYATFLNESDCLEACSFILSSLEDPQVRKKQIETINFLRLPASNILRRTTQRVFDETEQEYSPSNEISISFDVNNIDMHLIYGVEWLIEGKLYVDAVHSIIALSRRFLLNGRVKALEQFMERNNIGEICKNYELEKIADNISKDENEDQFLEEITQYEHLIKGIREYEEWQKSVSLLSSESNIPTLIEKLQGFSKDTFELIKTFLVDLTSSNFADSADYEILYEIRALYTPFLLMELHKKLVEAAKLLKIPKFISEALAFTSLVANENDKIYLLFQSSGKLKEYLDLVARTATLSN
# Sequence of Nup84-Nup133(521-1157) complex (P36161 521-1157, chain 2 of 2): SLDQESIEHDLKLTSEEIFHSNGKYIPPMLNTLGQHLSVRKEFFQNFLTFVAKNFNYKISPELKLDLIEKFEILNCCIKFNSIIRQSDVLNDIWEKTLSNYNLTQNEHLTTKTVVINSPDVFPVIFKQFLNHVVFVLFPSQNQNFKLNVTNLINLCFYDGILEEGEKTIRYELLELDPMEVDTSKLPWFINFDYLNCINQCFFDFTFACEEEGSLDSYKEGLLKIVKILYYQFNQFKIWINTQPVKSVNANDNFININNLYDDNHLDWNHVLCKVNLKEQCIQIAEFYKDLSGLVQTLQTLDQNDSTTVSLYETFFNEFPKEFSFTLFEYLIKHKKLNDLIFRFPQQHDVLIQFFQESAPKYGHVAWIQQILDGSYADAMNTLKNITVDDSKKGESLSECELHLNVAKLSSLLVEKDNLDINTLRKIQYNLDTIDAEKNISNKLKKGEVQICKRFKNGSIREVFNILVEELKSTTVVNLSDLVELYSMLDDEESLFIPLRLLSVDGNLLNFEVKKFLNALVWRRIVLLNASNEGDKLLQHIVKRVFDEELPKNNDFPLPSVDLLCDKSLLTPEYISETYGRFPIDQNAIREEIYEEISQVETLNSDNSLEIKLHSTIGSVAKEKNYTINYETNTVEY
# [2] = target: His6-Avitag-MBP-Nup116 (S. cerevisiae, UniProt Q02630 1-1113, biotin on the Avitag); experiment: BLI
# [3] = target: B1; experiment: BLI
binder,measurement,setting,value
"GST-Nup100(1-610) (domain or fragment, S. cerevisiae, UniProt Q02629 1-610, looked up) MFGNNRPMFGGSNLSFGSNTSSFGGQQSQQPNSLFGNSNNNNNSTSNNAQSGFGGFTSAAGSNSNSLFGNNNTQNNGAFGQSMGATQNSPFGSLNSSNASNGNTFGGSSSMGSFGGNTNNAFNNNSNSTNSPFGFNKPNTGGTLFGSQNNNSAGTSSLFGGQSTSTTGTFGNTGSSFGTGLNGNGSNIFGAGNNSQSNTTGSLFGNQQSSAFGTNNQQGSLFGQQSQNTNNAFGNQNQLGGSSFGSKPVGSGSLFGQSNNTLGNTTNNRNGLFGQMNSSNQGSSNSGLFGQNSMNSSTQGVFGQNNNQMQINGNNNNSLFGKANTFSNSASGGLFGQNNQQQGSGLFGQNSQTSGSSGLFGQNNQKQPNTFTQSNTGIGLFGQNNNQQQQSTGLFGAKPAGTTGSLFGGNSSTQPNSLFGTTNVPTSNTQSQQGNSLFGATKLTNMPFGGNPTANQSGSGNSLFGTKPASTTGSLFGNNTASTTVPSTNGLFGNNANNSTSTTNTGLFGAKPDSQSKPALGGGLFGNSNSNSSTIGQNKPVFGGTTQNTGLFGATGTNSSAVGSTGKLFGQNNNTLNVGTQNVPPVNNTTQNALLGTTAVPSLQQAPVTN",binding result,[1],binds
"GST-Nup100(1-307) (domain or fragment, S. cerevisiae, UniProt Q02629 1-307, looked up) MFGNNRPMFGGSNLSFGSNTSSFGGQQSQQPNSLFGNSNNNNNSTSNNAQSGFGGFTSAAGSNSNSLFGNNNTQNNGAFGQSMGATQNSPFGSLNSSNASNGNTFGGSSSMGSFGGNTNNAFNNNSNSTNSPFGFNKPNTGGTLFGSQNNNSAGTSSLFGGQSTSTTGTFGNTGSSFGTGLNGNGSNIFGAGNNSQSNTTGSLFGNQQSSAFGTNNQQGSLFGQQSQNTNNAFGNQNQLGGSSFGSKPVGSGSLFGQSNNTLGNTTNNRNGLFGQMNSSNQGSSNSGLFGQNSMNSSTQGVFGQNNN",binding result,[1],binds
"GST-Nup116(348-458) (domain or fragment, S. cerevisiae, UniProt Q02630 348-458, looked up) GALFGAKPASGGLFGQSAGSKAFGMNTNPTGTTGGLFGQTNQQQSGGGLFGQQQNSNAGGLFGQNNQSQNQSGLFGQQNSSNAFGQPQQQGGLFGSKPAGGLFGQQQGAST",binding result,[1],binds
"ScKap95 (natural protein, S. cerevisiae, UniProt Q06142 1-861, looked up) MSTAEFAQLLENSILSPDQNIRLTSETQLKKLSNDNFLQFAGLSSQVLIDENTKLEGRILAALTLKNELVSKDSVKTQQFAQRWITQVSPEAKNQIKTNALTALVSIEPRIANAAAQLIAAIADIELPHGAWPELMKIMVDNTGAEQPENVKRASLLALGYMCESADPQSQALVSSSNNILIAIVQGAQSTETSKAVRLAALNALADSLIFIKNNMEREGERNYLMQVVCEATQAEDIEVQAAAFGCLCKIMSLYYTFMKPYMEQALYALTIATMKSPNDKVASMTVEFWSTICEEEIDIAYELAQFPQSPLQSYNFALSSIKDVVPNLLNLLTRQNEDPEDDDWNVSMSAGACLQLFAQNCGNHILEPVLEFVEQNITADNWRNREAAVMAFGSIMDGPDKVQRTYYVHQALPSILNLMNDQSLQVKETTAWCIGRIADSVAESIDPQQHLPGVVQACLIGLQDHPKVATNCSWTIINLVEQLAEATPSPIYNFYPALVDGLIGAANRIDNEFNARASAFSALTTMVEYATDTVAETSASISTFVMDKLGQTMSVDENQLTLEDAQSLQELQSNILTVLAAVIRKSPSSVEPVADMLMGLFFRLLEKKDSAFIEDDVFYAISALAASLGKGFEKYLETFSPYLLKALNQVDSPVSITAVGFIADISNSLEEDFRRYSDAMMNVLAQMISNPNARRELKPAVLSVFGDIASNIGADFIPYLNDIMALCVAAQNTKPENGTLEALDYQIKVLEAVLDAYVGIVAGLHDKPEALFPYVGTIFQFIAQVAEDPQLYSEDATSRAAVGLIGDIAAMFPDGSIKQFYGQDWVIDYIKRTRSGQLFSQATKDTARWAREQQKRQLSL",binding result,[2],binds
"Nup170(980-1502) (domain or fragment, S. cerevisiae, UniProt P38181 980-1502, looked up) SIEYTATALQERCGSFCSASDILGFRAIEHLRRAKEIGLRNYDSLNYHLKNATALLEQIVDDLSIEKLKEAVSMMLSVNYYPKSIEFLLNIANSMDKGKLACQYVANGFLENDDRKQYYDKRILVYDLVFDTLIKVDELAEKKQSSKTQNQISISNDDEVKLRQKSYEAALKYNDRLFHYHMYDWLVSQNREEKLLDIETPFILPYLMEKAGSSLKISNILWVYYSRRSKFFESAEILYRLATSNFDITLFERIEFLSRANGFCNSVSPLSQKQRIVQLASRIQDACEVAGIQGDILSLVYTDARIDSAIKDELIKTLDGKILSTSELFNDFAVPLSYHEIALFIFKIADFRDHEVIMAKWDELFQSLRMEFNNTGKKEDSMNFINLLSNVLIKIGKNVQDSEFIFPIFELFPIVCNFFYETLPKEHIVSGSIVSIFITAGVSFNKMYYILKELIETSDSDNSVFNKEMTWLIHEWYKSDRKFRDIISYNDIIHLKEYKIDNDPIEKYVKNSGNNLGICFYKE",binding result,[2],binds
"His6-Avitag-MBP-Nup116(718-1113) (domain or fragment, S. cerevisiae, UniProt Q02630 718-1113, looked up, biotin on the Avitag) SQSMAQSQNALQQQQQQQRLQIQNNNPYGTNELFSKATVTNTVSYPIQPSATKIKADERKKASLTNAYKMIPKTLFTAKLKTNNSVMDKAQIKVDPKLSISIDKKNNQIAISNQQEENLDESILKASELLFNPDKRSFKNLINNRKMLIASEEKNNGSQNNDMNFKSKSEEQETILGKPKMDEKETANGGERMVLSSKNDGEDSATKHHSRNMDEENKENVADLQKQEYSEDDKKAVFADVAEKDASFINENYYISPSLDTLSSYSLLQLRKVPHLVVGHKSYGKIEFLEPVDLAGIPLTSLGGVIITFEPKTCIIYANLPNRPKRGEGINVRARITCFNCYPVDKSTRKPIKDPNHQLVKRHIERLKKNPNSKFESYDADSGTYVFIVNHAAEQT",binding result,[3],binds
B1,KD of the dominant of the two binding modes,[2],500 nM
same,fold lower KD than with the Nup116 variant lacking the GLFG-repeats,[2],~15 fold
